This note sets out measurements from patent publication US20150351390A1, “COMPOSITIONS AND METHODS FOR AUXIN-ANALOG CONJUGATION” (PIONEER HI-BRED INTERNATIONAL, INC., priority 2012, published 2015).

A short description of data set [1]: LC-MS assay of GH3 conjugation of IAA with Asp or Glu. The settings on record: for kcat (hrs−1) IAA-Asp: conjugation of IAA with Asp by recombinant GH3 protein, IAA-Asp product by LC-MS; for kcat (hrs−1) IAA-Glu: conjugation of IAA with Glu by recombinant GH3 protein, IAA-Glu product by LC-MS. It is filed as biochemical. The gist of the method:
(§1)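 Rxn: 20 mM Tris-HCl pH 8.0, 5 mM MgCl2, 1 mM DTT, 5 mM ATP, 5 mM auxin, 5 mM Asp/Glu, 44–164 μg/mL purified His-GH3; 30° C., 3 h. MeOH quench, supernatant diluted 20×, LC-MS vs conjugate standards.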

A short description of data set [2]: LC-MS assay of GH3 conjugation of 2,4-D with Asp or Glu. It counts as biochemical. The settings on record: 5 mM 2,4-D substrate; for kcat (hrs−1) 2,4-D-Asp: conjugation of 2,4-D with Asp by recombinant GH3 protein, 2,4-D-Asp product by LC-MS; for kcat (hrs−1) 2,4-D-Glu: conjugation of 2,4-D with Glu by recombinant GH3 protein, 2,4-D-Glu product by LC-MS. The gist of the method:
as §1

B1: VvGH3-4: GH3 protein, accession XP_002263353 (protein, listed as Vitis vinifera)
chain: MEGKRLEYRGEEALKELEKFTAKADEVQENILKEIIARNCETEYLKKYMGGSKDVLEFKQSVPVITYKDIHPYIQRIANGEDSSLISGHPITEMLCSSGTSGGEPKMMPSIAEDLNRRTFLYNLIMPIMNQYIPGLDEGKAMFLYFVKAEMSTPCGLPARAVLTSYYKSKNFRCRVRDAFNDFTSPDQAILCTDSNQSMYCQLLAGLVHRHQVLRLGAVFASALLRAISFLERHWVHLCNDIRTGHLDSSITDPECRSSMSTILSSPNPHLADEIEEICSHPSWKGMLSQLWPRAKYIEAVITGSMAQYIPSLEYYSGGKLPLVCTMYASSECYFGVNMKPLCDPADVAFTLLPNMCYFEFIPLGENGTLLMDMDEEKGVPKEKLVDLVHVRLGCYYELVVTTFAGLNRYRIGDVLQVTGFHNRAPQFRFICRRNVVLSIDNDKTNEEDLHRSITMAKKLLEPYNALLVEYTSYADTSSLPGHYVLYWEITHCISTDSPSTPLDSKVLEECCIAVEEELDYIYRRCRTHDKSVGPLEIRLVQPGTFEDLMDLFISQGGSINQYKTPRCIKSSNALKLLNSNVEASFFSPRDPRWIP
As to B1, in data set [1], the “kcat (hrs−1) IAA-Asp” value was 3.873 h⁻¹ and the “kcat (hrs−1) IAA-Glu” value worked out at 16.309 h⁻¹. Besides, in data set [2], the “kcat (hrs−1) 2,4-D-Asp” value was 0.000 h⁻¹ and the “kcat (hrs−1) 2,4-D-Glu” value amounted to 0.018 h⁻¹.

B2: SbEES08587: GH3 protein, accession EES08587 (protein)
chain: MSTSPAVLDHDHGHHRLLSSVSPPTTTTDSPATAMPPRAPSSLPPTIPACDPHDGPASLQLIEDLTTHAGAIQQRVLREILAMNAGTDYLRGFLGAGAEGRDADELAATFKDRVPVVEYEDVKPYIERIANGAPSSLISSKTITELLTSSGTSGGQPKLMPSTEEELDRKTFLYNLLVPVMNKYVEGLDKGRCMYLLFVKPEITTASGLVARPVLTSYYKSRHFRERPDSPYTRYTSPNEAILCPDSAQSMYAQLLCGLARRGEVLRVGAVFASAFLRAVKFLEAHWRALCDDIRAGRVDASRVTDAACRDAVARVVARPDPALADAIAAECEGSSSSSWRGIVRRLWPRTKYIDVIVTGSMAQYIPLLEFYGGGLPLVSTMYASSECYFGINLRPLDPPEDVAYTLLPNMCYYEFIKVEKDGEEAREDGKVVDLVDVEAGGYYELLVTTFTGLYRYRVGDILQVSGFHNAAPQFRFVHRRNVVLSVDTDKTSEDDLLRAVTAAKRLLAPLGGATILSEYTAYADTASIPGHYVLFWELTPTPPMPGDGDTAARVMAACCAEVEAGLDAVYQRCRSRDRSVGPLEIRVVSTGAFDALMDLCVSHGSSVNQYKTPRCIKHPDAIAVLEARVVGRFFSDTVPHWEPFNVVDTAAAGAAATTTPSLNEGAT
modifications: Sorghum bicolor
On to B2, for which, in data set [1], the “kcat (hrs−1) IAA-Asp” value is 10.251 h⁻¹ and the “kcat (hrs−1) IAA-Glu” value turned out to be 389.161 h⁻¹. In data set [2], the “kcat (hrs−1) 2,4-D-Asp” value stood at 0.044 h⁻¹ and the “kcat (hrs−1) 2,4-D-Glu” value amounted to 0.554 h⁻¹.

B3: RcGH3-17: GH3 protein, accession XP_002531876 (protein, listed as Ricinus communis)
chain: MDGKKLEYKGEAALEEIEKLTEKADEVQESILREILIQNGQTEYLSKYIKGSKDVKEFKYCVPVTTYKDMYPYIQRIANGEDSSLITGRPITEMLCSSGTSAGEPKLMPSINEDLDRRTFIYNLVMPIMNQYISGLDEGKAMYLYFVKEEMSTPCGLPARTVLTSYYKSKHFKCRARDSFNDFTSPDQAILCKDSDQSMYCQLLSGLVYRHQVLRIGAVFASALLRAISFLERNWVHLCNDIRNGELDPMITDPECRSCMSMILSSPNPSLADEIEEICSRPSWKGILCLLWPRTKYIEAVVTGSMAQYVPSLKYYSERKLPLVCTMYASSECYFGVNLKPLSDPAEVSFTLMPNMCYFEFIPLGENGTLLMDVDEEEKVPIHKLVDLVHVRRGCYYELVVTTFAGLYRYRIGDVLQVTGFHNQAPQFRFICRRNVVLSIDNDKTNEEDLHKSISTAKKLLEPYNAILVEYTSYAETLVVPGHYVLYWEILHHSSVVNHNQTPLDAEVFQECCIAVEEELDYIYRRCRTHDKSIGPLEIRVVEPGTFEALMDLFIGQGGSINQYKTPRCIKSNAALMLLNSHVKASFFSARDPVWIP
As to B3, in data set [1], the “kcat (hrs−1) IAA-Asp” value was 4.366 h⁻¹ and the “kcat (hrs−1) IAA-Glu” value is 10.433 h⁻¹. In addition, in data set [2], the “kcat (hrs−1) 2,4-D-Asp” value was 0.000 h⁻¹ and the “kcat (hrs−1) 2,4-D-Glu” value turned out to be 0.027 h⁻¹.
